According to the DeepSol protein solubility set:

assay: soluble on expression in E. coli; label from the status in PepcDB or PDB records

| Sequence | soluble on expression in E. coli |
| --- | --- |
| MGSDKIHHHHHHMPSSTTLQHAIENITIWRKGEQRAPHKPLLLLYVLSQYQRGHARMFDYASEIRDELHSLLERFGPQRRQYRPDMPFWRLKGDGFWELHNSDQCSTQGSRQPPGKELELCHVAGGFDEPHFALLNRNKRLINTLAHQILEAHFPESIQEELAEEMGFDLQQIRKERDPHFRQQVLRAYNYECAICGFNMRHDNTSVALEAAHIKWKQHGGPCEIPNGLALCAIHHKAFDKGSIGLDEDMRIQVSPAVNGGGIVGRLFWDFDGKPITLPQGKECYPQEGFVAWHRREVFRG | not soluble |
| MGSDKIHHHHHHMEIKKFIENYREAFGEYAELPIVFWYSDILENETGKVNGCFFKSMSKVRGGNTISLNAETIGCGGGKFYTGFTDMPEHVPTFVSLKERYKQTPEMVKSFIEQLGVPRAEKEYLHFARIDKVETFDHLEGILFLANPDILSGLTTWAFFDNNKEDTVISTFGSGCSSVVTQTILENRKGGYRTFIGFFDPSVRPYFEADILSYTIPMSRFKVMYETMRSSCLFDTHAWGKIRERNHNSYKE | not soluble |
| MDFRANLQRQVKPKTVSEEERKVHSPQQVDFRSVLAKKGTSKTPVPEKVPPPKPATPDFRSVLGGKKKLPAENGSSSAETLNAKAVESSKPLSNAQPSGPLKPVGNAKPAETLKPMGNAKPAETLKPMGNAKPDENLKSASKELKKDVKNDVNCKRGHAGTTDNEKRSESQGTAPAFKQKLQDVHVAEGKKLLLQCQVSSDPPATIIWTLNGKTLKTTKFIILSQEGSLCSVSIEKALPEDRGLYKCVAKNDAGQAECSCQVTVDDAPASENTKAPEMKSRRPKSSLPPVLGTESDATVKKKPAPKTPPKAAMPPQIIQFPEDQKVRAGESVELFGKVTGTQPITCTWMKFRKQIQESEHMKVENSENGSKLTILAARQEHCGCYTLLVENKLGSRQAQVNLTVVDKPDPPAGTPCASDIRSSSLTLSWYGSSYDGGSAVQSYSIEIWDSANKTWKELATCRSTSFNVQDLLPDHEYKFRVRAINVYGTSEPSQESELTTVGEKPEEPKDEVEVSDDDEKEPEVDYRTVTINTEQKVSDFYDIEERLGSGKFGQVFRLVEKKTRKVWAGKFFKAYSAKEKENIRQEISIMNCLHHPKLVQCVDAFEEKANIVMVLEIVSGGELFERIIDEDFELTERECIKYMRQISEGVEYIHKQGIVHLDLKPENIMCVNKTGTRIKLIDFGLARRLENAGSLKVLFGTPEFVAPEVINYEPIGYATDMWSIGVICYILVSGLSPFMGDNDNETLANVTSATWDFDDEAFDEISDDAKDFISNLLKKDMKNRLDCTQCLQHPWLMKDTKNMEAKKLSKDRMKKYMARRKWQKTGNAVRAIGRLSSMAMISGLSGRKSSTGSPTSPLNAEKLESEEDVSQAFLEAVAEEKPHVKPYFSKTIRDLEVVEGSAARFDCKIEGYPDPEVVWFKDDQSIRESRHFQIDYDEDGNCSLIISDVCGDDDAKYTCKAVNSLGEATCTAELIVETMEEGEGEGEEEEE | soluble |
| MKLPPSLICPPLLALYRVWCRTLNFEEEGRAAVDVLWQERKPMVFALWHDELFPLMHVRRELEIVTVVSQSRDGEYLARVLQGLGLHTARGSSSRGGVKALLQAARMMQKQNLCGCVTVDGPRGPRHRVKEGAIFLAHRAKAPIVPIRLFMSRTKVFAKAWDKFQLPLPGSDVRVVFGAPYHTAENALESPRLEDERQRLEAKLEALALEHHHHHH | soluble |
| MAHRTFRLCRLRIRRLRDHPLRQDGMVDYSTTATTNTLYLLHTGHHVPPPPSHRNPPFSFRSFRPPIQPCSPNSHHVDNVIILASAIK | not soluble |
| GPASQHFLSTSVQGPWERAISPNKVPYYINHETQTTCWDHPKMTELYQSLADLNNVRFSAYRTAMKLRRLQKALCLDLLSLSAACDALDQHNLKQNDQPMDILQIINCLTTIYDRLEQEHNNLVNVPLCVDMCLNWLLNVYDTGRTGRIRVLSFKTGIISLCKAHLEDKYRYLFKQVASSTGFCDQRRLGLLLHDSIQIPRQLGEVASFGGSNIEPSVRSCFQFANNKPEIEAALFLDWMRLEPQSMVWLPVLHRVAAAET | soluble |
| MGSDKIHHHHHHMKHKIVEVKNVLACLELMENLQGRSSITPGIGLIHGPSGFGKTTTLCWLINQLGAMNAIYVRCYATDTPSSFLARIMEELGSEMLYPMRKSVDFIVDRMNERQLPLFIDEADHIVGQSKIMETIRDLYDATEQPVVLVGMEEIARRISHRKQLFNRVSEWVEFQPADLSDVHSFAAELLDDRITVADDLLEHIRKRSGGEVRRILTALEKIERSAIANDMDIVTLDNWGDQPLFLEFRR | not soluble |
| MSLADIGSDHAYLPCYAVLNHKASGAIAGEITDGPFLSAKRQVEKSGLNSHISVRQGDGLEVIKKGEADAITIAGMGGALIAHILEAGKDKLTGKERLILQPNIHAVHIREWLYKERYALIDEVILEEDGKCYEVLVAEAGDRDAAYDGISLSAGMLVGPFLAKEKNAVFLKKWTQELQHTQSIYEQISQAADTEQNKQKLKELADRMELLKEVIDHGEGHHHHHH | soluble |
| MGSDKIHHHHHHMTVKSSTSSLHDRSSTSTSLMPGFADPVFDAQAVFRASLLATAYPGRVVPVDRALASPRPFSSATAALCLTLMDFETLAWLDRQAASGEAVAWLRFHCGLPVTDDPMKARFAVVTDALTMPRLVEFHPGDVEYPDRSMTLIIQVPSFNEGPATTWTGPGIKTSARVSIGGLPFWYWSDWEMNRELYPRGIDVIFTNGNALVGLPRTIAVEA | not soluble |
| MSSKNTAEVILGGKVIKLGGYESEEYLQRVASYINNKITEFNKEESYRRMSAELRTDMMYLNIADDYFKAKKMADSLSLDIENKDKEIYDLKHELIAAQIKAESSAKEIKELKSEINKYQKNIVKLETELNDSKK | soluble |
| RKKPVSQSLEFPTRYSPYRPYRCVHQGCFAAFTIQQNLILHYQAVHKSDLPAFSAEVEEE | soluble |
| MPQQKNFVTMPAQHQNKQPGIESLMNPLPQFEDPNYKGSEKLKGKNVLITGGDSGIGRAVSIAFAKEGANIAIAYLDEEGDANETKQYVEKEGVKCVLLPGDLSDEQHCKDIVQETVRQLGSLNILVNNVAQQYPQQGLEYITAEQLEKTFRINIFSYFHVTKAALSHLKQGDVIINTASIVAYEGNETLIDYSATKGAIVAFTRSLSQSLVQKGIRVNGVAPGPIWTPLIPSSFDEKKVSQFGSNVPMQRPGQPYELAPAYVYLASSDSSYVTGQMIHVNGGVIVNG | not soluble |
| MKVGIVGGGIVGLFTAYYLAKEGIKDIIIYEKGFLGAGSIHAAGLIEPYRFDKINTLSMIKKMLKYKMNGSTDIKEVDKLWLVELIKNLEKDPPGEAWDTMREMAKFSLSEYKRIAEEKNDFDYHEDGLLELYYNSKEFESGIEDEKKSPFNPKFEIEEIKGFAGGLFFPELSRISTEKFIDRISREIVSNIKVKNEEVIKVSDEGYIDGEKYDLVVVAAGIWSRILKIPLTAFKGYGYRVKGVSKLNRAAVIVDYGLAISPLSDHIKITGGFDADFSIDSKRAEDFLKKAEELVDIQYIIDLNMGFRPCSPDGFPVIGKRNNLVLVTGACRLGWSYGPAMGRYATDLALGKAKDLGYISRYYHELEHHHHHH | not soluble |
| PAMADTIKLRIIETTDIHTNVMDYDYYKDQPSQQIGLSRAATLVKQAKSEVENSVLVDNGDLIQGSPMGDYMAAKGIQTGEVHPVYKAMNQLHYDVGNIGNHEFNYGLDFLQNTLAGANFPYINANVFDKKTGEHYFQPYLIKTHSFKDTDGEVHQVKVGYIGFVPPQIMVWDKKNLEGNVVAKDIKETAEKLIPQMKKEGADIIVAIPHSGVSTDPYKLGAENSVYYLTQVKGIDAIAFGHSHAVFPGKGFENLQGVDNNKGTINGVTAVMPGRWGSHVGVMDLVIEQKDGQWQVVEGQSEARPIFDKAAKKSLAEADQCIIRALEDDHKGTREFVNQ | not soluble |
| MAYSEKVIDHYENPRNVGKLDAADPNVGTGMVGAPACGDVMRLQIKVNEQGVIEDAKFKTYGCGSAIASSSLATEWMKGKTLDEAETIKNTTIAEELALPPVKIHCSVLAEDAIKAAVRDYKQKKGLL | not soluble |
| MDMVAQALELSRKPHVVIATPGRLADHLRSSNTFSIKKIRFLVMDEADRLLEQGCTDFTVDLEAILAAVPARRQTLLFSATLTDTLRELQGLATNQPFFWEAQAPVSTVEQLDQRYLLVPEKVKDAYLVHLIQRFQDEHEDWSIIIFTNTCKTCQILCMMLRKFSFPTVALHSMMKQKERFAALAKFKSSIYRILIATDVASRGADQPPLPPGAWTSLRYRWSSTTTPPGSPRSTSTESAGRPVQGGRVRPSRW | soluble |
